The values that follow come from paper PMC7541481, “A unique clade of light-driven proton-pumping rhodopsins evolved in the cyanobacterial lineage” (Scientific Reports, 2020).

The target in one series is Asp85 (UniProt position 98, WARYADWLFTT). Particulars: cited from earlier work.
The target in a further series is T1, N2098R (Calothrix sp., UniProt Z9R0O1FWN2).
T1 construct: crystal: E. coli cell-free synthesis; retinal analysis: synthetic codon-optimized gene in pET21a, E. coli, C-terminal His-tag, DDM-solubilized
T1 sequence (Z9R0O1FWN2 8-254): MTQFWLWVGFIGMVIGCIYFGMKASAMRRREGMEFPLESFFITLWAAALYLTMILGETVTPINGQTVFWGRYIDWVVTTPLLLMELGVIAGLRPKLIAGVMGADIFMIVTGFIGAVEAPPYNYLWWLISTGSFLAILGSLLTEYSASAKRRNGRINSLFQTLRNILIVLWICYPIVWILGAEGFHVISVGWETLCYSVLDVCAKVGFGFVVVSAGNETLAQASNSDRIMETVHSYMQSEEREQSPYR
Put plainly: X-ray crystal structure ([…] Å); retinal isomer HPLC. The class given is binding. Particulars: covalent; Schiff base with Lys204; in meso crystals.

A further series addresses T2, N4075R (Tolypothrix sp., UniProt Z9F5K4BE25).
T2 construct: E. coli cell-free synthesis for crystallization, in meso
T2 sequence (Z9F5K4BE25 8-259): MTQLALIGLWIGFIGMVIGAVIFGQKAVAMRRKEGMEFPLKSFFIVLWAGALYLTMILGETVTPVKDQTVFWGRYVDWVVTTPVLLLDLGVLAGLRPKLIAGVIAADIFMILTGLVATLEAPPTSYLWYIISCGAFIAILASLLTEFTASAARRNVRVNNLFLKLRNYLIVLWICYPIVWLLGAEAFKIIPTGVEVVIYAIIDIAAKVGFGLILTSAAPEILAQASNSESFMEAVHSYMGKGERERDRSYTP
Put plainly: X-ray crystal structure ([…] Å). The format is binding. To be noted: covalent; Schiff base lysine; isomer not stated for this protein.

The next series deals with Asp97 (UniProt position 97, VFRYIDWLLTV). To be noted: cited from earlier work.
The target in another series is Asp121 (UniProt position 121, AYRYVDWLLTV). Particulars: cited from earlier work.
The target in another series is Asp74 (position 74, …). Put plainly: UV-vis. To be noted: room temperature (approx. 25°C); 50 mM NaCl; seven-mix buffer (Tris, citric acid, MES, HEPES, MOPS, CHES, CAPS; 10 mM each); dark/unphotolysed state under room light, all-trans retinal bound, detergent-solubilised, folded (reversibility checked).

With “Bacteriorhodopsin (BR) (Halobacterium salinarum)”, the pKa result in the series with Asp85 was “Approx. 2.6”. On to `CC1=C(/C=C/C(C)=C/C=C/C(C)=C/C=O)C(C)(C)CCC1` [all-trans retinal], for which the “X-ray crystal structure (2.65 Å); retinal isomer HPLC” value at N2098R is on record as “the isomeric state of retinal was predominantly all-trans”. Also, the “X-ray crystal structure (1.9 Å)” value at N4075R is recorded as “Since the two structures were almost identical, only the structure of N2098R is described”.

Regarding “Green-absorbing proteorhodopsin (GPR) (uncultured marine gamma proteobacterium EBAC31A08)”, the pKa result with Asp97 is “Approx. 7.9”. For “Gloeobacter rhodopsin (GR) (Gloeobacter violaceus PCC 7421)”, in the series with Asp121, the pKa entry was “Approx. 5.9”.

B1: Cyanorhodopsin N2098R (Calothrix sp. NIES-2098) (protein)
chain: MTQFWLWVGFIGMVIGCIYFGMKASAMRRREGMEFPLESFFITLWAAALYLTMILGETVTPINGQTVFWGRYIDWVVTTPLLLMELGVIAGLRPKLIAGVMGADIFMIVTGFIGAVEAPPYNYLWWLISTGSFLAILGSLLTEYSASAKRRNGRINSLFQTLRNILIVLWICYPIVWILGAEGFHVISVGWETLCYSVLDVCAKVGFGFVVVSAGNETLAQASNSDRIMETVHSYMQSEEREQSPYR
Turning to B1, the pKa with Asp74 (position 74, …) is recorded as below 2.0.
